Patent US6794178

Target: microtubules

B1: Bacterially expressed and purified KinI-3 protein (protein)
chain: DCDIPIIQRISHVSGYNYGIPHSCIRQNTSEKQNPWTEMEKIRVCVRKRPLGMREVRRGEINIITVEDKETLLVHEKKEAVDLTQYILQHVFYFDEVFGEACTNQDVYMKTTHPLIQHIFNGGNATCFAYGQTGAGKTYTMIGTHENPGLYALAAKDIFRQLEVSQPRKHLFVWISFYEIYCGQLYDLLNRRKRLFAREDSKHMVQIVGLQELQVDSVELLLEVILKGSKERSTGATGVNADSSRSHAVIQIQIKDSAKRTFGRISFIDLAGSERAADARDSDRQTKMEGAEINQSLLALKECIRALDQEHTHTPFRQSKLTQVLKDSFIGNAKTCMIANISPSHVATEHTLNTLRYADRVKEL
With B1 the “microtubule depolymerization (tubulin in supernatant after centrifugation, SDS-PAGE), AL + ATP/MT” value was “Track 3 shows an increase in tubulin in the supernatant that indicates depolymerization in the presence of ATP”, the “microtubule depolymerization (tubulin in supernatant), AL + MT + ADP” value was “No depolymerization was observed ... in the presence of ADP (track 6)” and the “microtubule depolymerization (tubulin in supernatant), AL + MT/AMPPNP” value was “No depolymerization was observed ... in the presence of AMP-PNP (track 5)”. The “microtubule depolymerization (tubulin in supernatant), AL treated by Apyrase + MT” value was “No depolymerization was observed in the absence of ATP (track 4)”.
